B1: Cyclin-dependent kinase inhibitor 2A (Homo sapiens), P42771 (parent)
chain: MEPAAGSSMEPSADWLATAAARGRVEEVRALLEAGALPNAPNSYGRRPIQVMMMGSARVAELLLLHGAEPNCADPATLTRPVHDAAREGFLDTLVVLHRAGARLDVRDAWGRLPVDLAEELGHRDVARYLRAAAGGTRGSNHARIDAAEGPSDIPD

Columns and labels:
[1] = variants of: B1; details: with cdk4_human CDK4, P11802
[2] = variants of: B1; details: with cdk4_human CDK4, P11802; remark: listed apart in the source
[3] = variants of: B1; details: with cdk6_human CDK6, Q00534
Sequence of cdk6_human CDK6, Q00534 (Q00534 whole entry): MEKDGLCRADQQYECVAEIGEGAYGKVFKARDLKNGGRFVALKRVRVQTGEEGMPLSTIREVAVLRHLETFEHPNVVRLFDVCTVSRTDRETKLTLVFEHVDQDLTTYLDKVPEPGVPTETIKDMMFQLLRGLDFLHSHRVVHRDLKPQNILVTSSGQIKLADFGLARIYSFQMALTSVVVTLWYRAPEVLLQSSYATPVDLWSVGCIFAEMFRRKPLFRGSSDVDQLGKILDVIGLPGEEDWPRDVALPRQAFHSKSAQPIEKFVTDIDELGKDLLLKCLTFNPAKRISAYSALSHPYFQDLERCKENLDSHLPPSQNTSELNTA

Sequence of cdk4_human CDK4, P11802 (P11802 whole entry): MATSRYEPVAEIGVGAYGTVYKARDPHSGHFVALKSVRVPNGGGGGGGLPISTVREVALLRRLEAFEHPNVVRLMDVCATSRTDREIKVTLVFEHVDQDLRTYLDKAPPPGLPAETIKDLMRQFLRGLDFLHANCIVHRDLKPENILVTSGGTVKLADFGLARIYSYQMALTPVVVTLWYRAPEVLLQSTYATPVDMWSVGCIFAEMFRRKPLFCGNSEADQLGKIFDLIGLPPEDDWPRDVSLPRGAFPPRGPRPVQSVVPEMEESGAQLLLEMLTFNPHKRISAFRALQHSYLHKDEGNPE

Variant | effect of a mutation on the interaction [1] | effect of a mutation on the interaction [2] | effect of a mutation on the interaction [3]
R24P | disrupting interaction | – | –
A20P | disrupting interaction | disrupting interaction strength | disrupting interaction

Reference: IntAct's records for PubMed 17909018
